From PMC10009750, “Development of Selective ADAMTS-5 Peptide Substrates to Monitor Proteinase Activity” (Journal of Medicinal Chemistry, 2023) come the findings set out here.

Non-standard residues stand in square brackets, D forms with d. No end group written: not given here. Tyr(3-NO2) = N[C@@H](Cc1ccc(O)c([N+](=O)[O-])c1)C(=O)O; 2Abz = Nc1ccccc1C(=O)O

For assay [1], the target named is T1, TS5-5 (combined catalytic and disintegrin domain of ADAMTS-5) (Homo sapiens, UniProt Q9UNA0).
T1 construct: ADAMTS-5 (i.e. TS5-5, residues 264–555); FLAG; made in house; host or cells: HEK293 cells (previously transfected stocks)
T1 sequence (Q9UNA0 264-555): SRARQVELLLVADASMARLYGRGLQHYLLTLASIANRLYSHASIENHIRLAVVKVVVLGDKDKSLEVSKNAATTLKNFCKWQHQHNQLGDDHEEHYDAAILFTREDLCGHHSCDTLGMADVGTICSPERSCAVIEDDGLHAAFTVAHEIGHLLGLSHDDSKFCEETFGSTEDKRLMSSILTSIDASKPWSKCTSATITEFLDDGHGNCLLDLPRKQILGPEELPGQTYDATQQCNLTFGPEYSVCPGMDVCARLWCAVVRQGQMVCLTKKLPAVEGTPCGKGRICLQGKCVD
Description: Cleavage of FRET peptide substrates by TS5-5 in solution (activity/selectivity studies). Format: biochemical. Particulars: substrate 20 μM, TNC buffer with 0.005% (v/v) Brij-35, 37 °C; mean of 3–4 independent experiments in triplicate. On the procedure:
(§1) All proteinase assays were performed at 37 °C in a SpectraMax M5 spectrophotometer (Molecular Devices, San Jose, USA) using a 96-well black microplate (Greiner bio-one, Stonehouse, UK) unless otherwise stated. […] N-TIMP-3 was purified as described previously[30] and CT-1746 was a gift from Dr. Yoshifumi Itoh (Kennedy Institute of Rheumatology, University of Oxford). All analyses were carried out using Prism 9 software (GraphPad, La Jolla, CA, USA).
To test whether active TS5-5 had been purified, three concentrations of proteinase were assayed. A solution of Abz-TESE↓SRGAIY-Dpa-KK-NH2 (22.22 μM) in freshly prepared TNC buffer with 0.02% (v/v) Brij-35 (180 μL) was added to a 96-well black microplate in triplicate for each proteinase concentration. A substrate-only background control was also added in triplicate (180 μL). The resultant solutions were incubated at 37 °C (30 min). TS5-5 proteinase in TNC buffer with 0.02% (v/v) Brij-35 (20 μL) was added to wells to give final proteinase concentrations of 80 nM, 40 nM and 20 nM. TNC buffer with 0.02% (v/v) Brij-35 (20 μL) was also added to background control wells. The change in RFU was measured at 37 °C for 1 h, with readings every 20 s. Following subtraction of background fluorescence intensity, linear regression analysis of the linear part of each curve was used to determine the cleavage rate, which was expressed as the mean ± SEM in RFU s^–1. For cases where a single concentration of TS5-5 or TS4-4 was assayed, the same procedure was used but with 0.005% (v/v) Brij-35 and using the 5-FAM-AE↓LQGRPISIAK-TAMRA substrate for TS4-4 (0.56 μM). To convert cleavage rates to nM s^–1 nM^–1, the rate in RFU s^–1 was divided by the final concentration of proteinase (nM), then divided by the gradient of the calibration curve for Abz or 5-FAM (expressed in RFU nM^–1).
(§2) Selectivity studies are described for Abz-TESE↓SRGAIY-Dpa-KK-NH2, the library parent peptide 3, and hit peptides 18–26. A solution of Abz-TESE↓SRGAIY-Dpa-KK-NH2 (22.22 μM) in freshly prepared TNC buffer with 0.005% (v/v) Brij-35 (90 μL) was added to a 96-well clear bottom microplate (Greiner bio-one, Stonehouse, UK) in triplicate. A substrate-only background control was also added in triplicate (90 μL). The resultant solutions were incubated at 37 °C (30 min). An ADAMTS or MMP proteinase was added to substrate wells (10 μL) to give a final proteinase concentration of either 50–90 nM (TS4-4), 25–200 nM (TS5-5), 5–10 nM (MMP-2ΔC), 30 nM (MMP-9ΔC), 92 nM (MMP-1), or 3 μM (MMP-3). TNC buffer with 0.005% (v/v) Brij-35 was added to substrate-only control wells (10 μL). The relative fluorescence intensity was measured at 37 °C for 1 h with readings every 20 s. Activity was read from underneath the microplate, which was covered with a low evaporation lid. […] For each ADAMTS and MMP proteinase, the assay was performed 2–4 times. […] Final rates were expressed as a percentage of substrate cleavage by TS5-5 (mean ± SEM) or in μM s^–1 μM^–1 of proteinase.

Assay [2] deals with MMP-9ΔC (catalytic domain of MMP-9). Nature of the assay: Selectivity studies: cleavage of FRET peptide substrates by MMP-9ΔC. Conditions: substrate 20 μM, after 48 h at an MMP-9 concentration of 30 nM, 37 °C. Format: biochemical. On the procedure:
as §1, §2

For another assay, the target named is T2, TS5-5 (ADAMTS-5) (Homo sapiens, UniProt Q9UNA0).
T2 construct: ADAMTS-5 (i.e. TS5-5, residues 264–555); FLAG; made in house; host or cells: HEK293 cells (previously transfected stocks)
T2 sequence (Q9UNA0 264-555): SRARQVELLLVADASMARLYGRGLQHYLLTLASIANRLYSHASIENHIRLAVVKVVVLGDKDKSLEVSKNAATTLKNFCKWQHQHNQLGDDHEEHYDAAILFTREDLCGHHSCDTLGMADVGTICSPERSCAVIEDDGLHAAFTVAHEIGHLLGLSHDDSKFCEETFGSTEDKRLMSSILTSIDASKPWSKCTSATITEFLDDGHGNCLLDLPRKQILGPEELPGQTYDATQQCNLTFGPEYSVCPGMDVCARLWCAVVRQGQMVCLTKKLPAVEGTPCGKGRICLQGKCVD
Description: Determination of kinetic parameters (kcat and Km) for substrate cleavage by TS5-5, inner-filter corrected. Format: biochemical. Conditions: for decrease in Km compared to the current substrate / lower catalytic rate constant (kcat) compared to the current substrate: TS5-5. As to the method:
A solution of Abz-TESE↓SRGAIY-Dpa-KK-NH2/3/26 (5 mM) or 19/23 (1 mM) in DMSO underwent a 2-fold serial dilution with freshly prepared TNC buffer containing 0.005% (v/v) Brij-35. This gave initial concentrations in the following range: 222.22 to 0.87 μM (Abz-TESE↓SRGAIY-Dpa-KK-NH2/3/23/26) and 177.78 to 1.39 μM (19). Eight substrate concentrations (180 μL) within these ranges (including outer numbers) were added to a 96-well black microplate in triplicate and incubated at 37 °C (20 min). TNC buffer with 0.005% (v/v) Brij-35 was added to substrate-only control wells in a single replicate (180 μL). TS5-5 proteinase was thawed from −80 or −20 °C, made up in TNC buffer with 0.005% (v/v) Brij-35 (300 nM) and added to substrate wells (20 μL). TNC buffer was added to substrate-only control wells (20 μL). Fluorescence intensity was measured at 37 °C for 1 h with readings every 20 s. The rate of substrate cleavage was determined at each substrate concentration and expressed as the mean ± SEM in μM s^–1. The subsequent data was fitted to the Michaelis–Menten eq 2: [drawing 2] 2 where v is the rate of the reaction, Vmax is the maximal rate of the reaction, Km is the Michaelis constant, and [S] is the substrate concentration. This equation enabled the Km value to be determined. The catalytic rate constant kcat was determined from eq 3: [drawing 3] 3 where [E] is the concentration of proteinase, and kcat and Vmax are as defined previously. These initial Km and kcat parameters were determined from n = 3–4 independent experiments with final values for these parameters reported after a correction for the inner-filter effect.
This was performed based on the protocol described in Liu et al.([40]) to correct for quenching of the released Abz fluorophore by uncleaved substrate. Two sets of initial substrate concentrations were prepared as described in the previous section. Both sets of substrate concentrations (180 μL) were added to a 96-well black microplate in triplicate. Two buffer-alone controls with TNC buffer containing 0.005% (v/v) Brij-35 (180 μL) were also added in triplicate. All solutions were incubated at 37 °C (20 min). Abz fluorophore (1 M) in DMSO was serially diluted to 1 mM in DMSO, before further dilution to 100 μM using TNC buffer containing 0.005% (v/v) Brij-35. TNC buffer containing 0.005% (v/v) Brij-35 (20 μL) was added to the first set of substrate concentrations as well as to the first buffer-alone control. Abz fluorophore (20 μL, 100 μM) was added to the second set of substrate concentrations as well as the second buffer-alone control. The end-point fluorescence intensity was measured at 37 °C using λex = 300 nm and λem = 430 nm. At each substrate concentration, […] to give the actual fluorescence of the Abz fluorophore (RFUAbz). These values were divided by RFUAbz at a substrate concentration of 0 μM to give the correction factor for each concentration. The rates for each substrate concentration described in the previous section were divided by their respective correction factors (Tables S6–S10) to deliver the inner-filter corrected kcat and Km values.

A further assay concerns the target T3, TS4-4 (ADAMTS-4) (Homo sapiens, UniProt O75173).
T3 construct: TS4-4, TS5-5 = catalytic and disintegrin domains; made in house; host or cells: HEK293 cells (previously transfected stocks)
T3 sequence (O75173 213-519 limits assumed): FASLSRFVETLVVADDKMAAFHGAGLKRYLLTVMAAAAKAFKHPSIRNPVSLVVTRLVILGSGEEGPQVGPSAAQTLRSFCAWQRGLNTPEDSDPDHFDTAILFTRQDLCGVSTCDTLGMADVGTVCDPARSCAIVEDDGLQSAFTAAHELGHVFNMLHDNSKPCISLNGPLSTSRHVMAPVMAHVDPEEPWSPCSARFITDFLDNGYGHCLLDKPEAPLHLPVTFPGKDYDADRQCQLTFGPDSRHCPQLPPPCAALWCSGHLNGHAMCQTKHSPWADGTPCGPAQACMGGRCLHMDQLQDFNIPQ
Nature of the assay: Selectivity studies: cleavage of FRET peptide substrates by TS4-4. Format: biochemical. Conditions: substrate 20 μM, TS4-4 50–90 nM, TNC buffer with 0.005% (v/v) Brij-35, 37 °C; mean of 3–4 independent experiments in triplicate. As to the method: as §1, §2

The target in assay [3] is combined catalytic and disintegrin domain of ADAMTS-5 (TS5-5) (UniProt Q9UNA0).
Where [4] appears, read: TS5-5, TNC buffer with 0.005% (v/v) Brij-35, 37 °C, corrected for inner filter effect, mean ± SEM from 3–4 independent experiments in triplicate.
Where [5] appears, read: supplementary CSV copy of Table 3, TS5-5, 37 °C.

As to “KY(NO2)NDTESOAK(Abz)AHFUKG [Compound 24]”, in assay [1], the “rate of cleavage by TS5-5” value is on record as 1.41 × 10^–4 μM s^–1 μM^–1. Moreover, in assay [2], the “cleavage by MMP-9ΔC” value was “no signs of cleavage”.
Take “KY(NO2)NESESKAK(Abz)VHYKKG (K[Tyr(3-NO2)]NESESKAK(2Abz)V-{H2N-Tyr-Lys-Lys-Gly}) [Compound 25]”: the “rate of cleavage by TS5-5” value in assay [1] is given as 1.78 × 10^–2 μM s^–1 μM^–1. For the same molecule, in assay [2], the “cleavage by MMP-9ΔC” value is on record as “no signs of cleavage”.
Taken in the same sequence, the figures for “KY(NO2)QDSESBAK(Abz)JHYUKG [Compound 20]” were 1.22 × 10^–3 μM s^–1 μM^–1 and “no signs of cleavage”.
In the case of “KY(NO2)SESESRGK(Abz)IYYKKG (K[Tyr(3-NO2)]SESESRGK(Abz)IYYKKG) [Compound 23]”, in the assay with TS5-5 (ADAMTS-5), the “decrease in Km compared to the current substrate” value is listed as ~2 fold and the “lower catalytic rate constant (kcat) compared to the current substrate” value is ~3 fold. In the assay with TS5-5 (ADAMTS-5) (setting [4]), the Km is 64.6 ± 4.6 µM, the kcat was 1.14 ± 0.11 s⁻¹ and the kcat/Km worked out at 18200 ± 2940 M⁻¹ s⁻¹. In addition, the kcat in the assay with TS5-5 (ADAMTS-5) (setting [5]) was determined as 1.14 ± 0.11 s⁻¹.
Consider “KY(NO2)TENESRGK(Abz)IYYKKG (K[Tyr(3-NO2)]TENESRGK(Abz)IYYKKG) [Compound 19]”, for which, in the assay with TS5-5 (ADAMTS-5), the “decrease in Km compared to the current substrate” value was ~4 fold and the “lower catalytic rate constant (kcat) compared to the current substrate” value is listed as ~7 fold. In addition, in the assay with TS5-5 (ADAMTS-5) (setting [4]), the Km came to 30.5 ± 2 µM, the kcat was found to be 0.53 ± 0.014 s⁻¹ and the kcat/Km was determined as 17500 ± 1080 M⁻¹ s⁻¹. The kcat in the assay with TS5-5 (ADAMTS-5) (setting [5]) was determined as 0.53 ± 0.014 s⁻¹. In the assay with TS4-4 (ADAMTS-4), the “rate of cleavage by TS4-4” value is given as 0.08–0.10 μM s^–1 μM^–1.
For “KY(NO2)TETESOAK(Abz)IYFKKG [Compound 22]”, the “rate of cleavage by TS5-5” value in assay [1] is listed as 7.38 × 10^–2 μM s^–1 μM^–1.
As to “ortho-aminobenzoyl(Abz)-TESE↓SRGAIY-N-3-[2,4-dinitrophenyl]-L-2,3-diaminopropionyl(Dpa)-KK-NH2 (peptide)”, the Km of cleavage of the FRET peptide by TS5-5 (Michaelis-Menten fit, corrected for the inner-filter effect, 37 °C, TNC buffer with 0.005% Brij-35) in assay [3] was determined as 125 µM.
On the same count and under the same terms, for K[Tyr(3-NO2)]SENESRGK(2Abz)IYYKKG [KY(NO2)SENESRGK(Abz)IYYKKG (26)] the value was 76.9 µM.
The same measure, in the same setting: for K[Tyr(3-NO2)]TESESRGK(2Abz)IYYKKG [KY(NO2)TESESRGK(Abz)IYYKKG (3)] the value was 29.5 µM; for K[Tyr(3-NO2)]TENESRGK(2Abz)IYYKKG [KY(NO2)TENESRGK(Abz)IYYKKG (19)], 30.5 µM.
